Assay results as given in the nanobody polyreactivity screen of Harvey et al. (2022).

Assay: yeast display, Sf9 membrane polyspecificity reagent, FACS + sequencing; frameworks hold sequencing errors
Outline: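 Nanobodies came from a synthetic yeast display library in Saccharomyces cerevisiae BJ5465, induced with galactose for 36–48 hours and stained for 1 hour at 4 °C with 10% biotinylated, detergent-solubilized Sf9 membrane reagent. Cells were enriched on streptavidin microbeads and then FACS-sorted, with low and high (top ~1%) gates set on anti-HA fluorescence for expression and streptavidin fluorescence for reagent binding. Each polyreactivity label reflects the gate a clone came from. Genes were amplified by colony PCR, sequenced by MiSeq 2 × 250 and filtered by CDR length.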

| Sequence | polyreactivity (PSR sort gate) |
| --- | --- |
| QVQLQESAGGLVQAGGSLRLRFSASAYNSCDASMGWYSQAPGKERELSASISKGSSTNYADSVKGRFTIRDNAKNSVYLQMNSLKPEVTAVCYCAVTYPYWGDYTYWGQGTQVSVSS | low polyreactivity |
| QDQLVESGGGLVQAGGSLRLSCAASGITFWYYAMGWYRQAPGKERELVAAITRSGRTNYADSVKGRFTISRDYAKNTVYLQMNILKPEDTAVYYCAVDLYSFSPRYYYWGQGTQVTVSS | low polyreactivity |
| QVQLVESGGGLVQAGGSLRLSCAASGSTFGIYAMGWYRQAPGKERELVAAITWRGSSTYYADSVKGRFTISRDNAKNTVYLQMNSLKPEDTAVYYCAAEDTFYEYYSWGQGTQVTVSS | high polyreactivity |
| QVQLVESGGGLVQAGGSLRLSCAASGRTFSGYAMGWDRQAPGKERELDAAISRGGSTNYADSVKGRFTISRDNAKNTVYLQMNSLKPEDTAVYYCAVRVYYGWAQPGYYYWGQGTQVTVSS | high polyreactivity |
| QVQLVESGGGLVQAGGSLRLSCAASGLIFGTYAMGWYRQAPGKERELVATITRGGGSTYYADSVKGRFTISRDNAKNTVYLQMNSLKPEDTAVYDCAKTYFYGVRRFNYWGQGTQVTVSS | high polyreactivity |
| QDQLVESGGGLVQAGGSLRLSCAASGRTYGSYAMGWYRQAPGQEMELVAAISRSDGSTYYADSVKGRFTISRDNAKNTVYLQMNSLKPEDTAVYYCAAKRWYVSYDYDYWGQGTQVTVSS | high polyreactivity |
| QVQLVESGGGLVQAGGSLRLSCAASGITFELYAMGLYIQAPGKERELVAAISSNGGITFYADSVKGRFTISRDNAKNTVYLQMNSLKTEDTAVYYCAARGYIRGPSKLDYWGQGTQVTVSS | high polyreactivity |
| QVQLVESGGGLVQAGGSLRLSCAASGRTFDHYAMGWYRQAPGKERELVAAITSGGSTYYADSVKGRFTISRDNAKNTVYLQRNSLKPEDTAVYYCNKDSSFWGYYIAQVNERDYWGQGTQVTVSS | low polyreactivity |
| QVQLVESGGGLVQAGGSLRLSCAASGSIFPHYAMGWSRQAPGKERELVSAISSGGRTYYADSVKGRFTISRDNAKNTVYLQMNSLKPEDTAVYYCAARRIARKGYGYWGQGTQVTVSS | high polyreactivity |
| QVQLVESGGGLVQAGGSLRLSCAASGSIFYVYAMGWYGQAPGKDRELVASISWGDSSTYYADSVKGRFTISRDTAKNTVYLQMNSLKPEDTAVYYCAADEYRQYALYDYWGQGTQVTVSS | low polyreactivity |
| QVQLVESGGGLVQAGGSLRLSCAPSGRIIYRYAIGWYRQAPRKETDLVAAITIGGRTNYADSVKGRFTISRDNANNPVYLEMISLKPEDTAVYYCAVVLYTRYPPRVRYYYWGQGTQVTVSS | high polyreactivity |
| QVQLVESGGGLVQAGGSLRLSCAASGRIFPSYAMGWYRPAPGKERELVAAITWSGGSTYYAHSVKGRFTISRDNAKNTVYLLRNSLKPEDTAVYYCNRVERRGTYDYWGQGTQVSVSS | high polyreactivity |
| QVQLVDSGGGLVQAGGSHRLSCAASGSTFYGNLMGWYRQAPGRERELVAAISGGCSTNYADSVKGRFTISRDNEKNTVYLQLNSLKPEDTAVYYCAARGVIRVGNAARYVAGYYWGQGTQVTVSS | high polyreactivity |
| QVQLVESGGGLVQAGGSLRLICAASGRIFFIYAMGWYRQAPGKERELVAGINRTGGSTYYADSVKGRFTISRDNAKNSVYLHMNSLKPEDTAVYYCAAVSYYASDYRYDYWGKGTQVTVSS | low polyreactivity |
| QVQLVESGGGLVQAGGSLRLSCAASGSIFGGYAMGWYRQAPGKERELVAAISWSSSSTYYADSVKGRFTISRDNAKNTVFLQMISLKPEDTAVYYCATGIYPQTSDYVYWGQGTQVTVSS | low polyreactivity |
| QVQIVVSGGGLVQAGGRRRLSCAASGRFFWVYAMGWYRQAPGKERELVAAISRSGGITSYADSVKGRYTISRDNANYTVYLQMNSLKPEDTAVYCCAARSYFDGFYYWGQGAQVTVSS | high polyreactivity |
